Kd and fold decrease of binding against wild type GlyRS data for three molecules are collected here from patent US20190381086A1, “INHIBITION OF NEDDYLATION USING GLYCYL-tRNA SYNTHETASE INHIBITORS” (The Scripps Research Institute, priority 2015, published 2019).

Test [1] concerns the target Ubc12^N8: NEDD8-conjugated Ubc12 (C111S, stable ester linkage to His-SUMO-tagged NEDD8) (UniProt P61081). Briefly: biolayer interferometry (Octet), 30 °C, Ubc12^N8 (100 nM) immobilized on sensor tips, GlyRS 0.25 µM; curve 'Blank' (no GlySA). On the technique in general: BLI is a label-free optical method that tracks binding on a fibre tip over time.
Test [2] has the same target. The test is described as follows: biolayer interferometry, Ubc12^N8 immobilized, full-length GlyRS 8.07-129 nM.
Test [3] shares this target. The test is described as follows: biolayer interferometry (Octet), 30 °C, Ubc12^N8 (100 nM) immobilized on sensor tips, GlyRS 0.25 µM; in the presence of 1.0 mM of the small molecule GlySA.
For test [4] the target is unchanged. Briefly: biolayer interferometry (Octet), 30 °C, Ubc12^N8 (100 nM) immobilized on sensor tips, GlyRS 0.25 µM; in the presence of 0.5 mM of the small molecule GlySA.
Test [5] has the same target. Briefly: biolayer interferometry, Ubc12^N8 immobilized.

B1: full-length human GlyRS (enzyme)
chain: MDGAGAEEVLAPLRLAVRQQGDLVRKLKEDKAPQVDVDKAVAELKARKRVLEAKELALQPKDDIVDRAKMEDTLKRRFFYDQAFAIYGGVSGLYDFGPVGCALKNNIIQTWRQHFIQEEQILEIDCTMLTPEPVLKTSGHVDKFADFMVKDVKNGECFRADHLLKAHLQKLMSDKKCSVEKKSEMESVLAQLDNYGQQELADLFVNYNVKSPITGNDLSPPVSFNLMFKTFIGPGGNMPGYLRPETAQGIFLNFKRLLEFNQGKLPFAAAQIGNSFRNEISPRSGLIRVREFTMAEIEHFVDPSEKDHPKFQNVADLHLYLYSAKAQVSGQSARKMRLGDAVEQGVINNTVLGYFIGRIYLYLTKVGISPDKLRFRQHMENEMAHYACDCWDAESKTSYGWIEIVGCADRSCYDLSCHARATKVPLVAEKPLKEPKTVNVVQFEPSKGAIGKAYKKDAKLVMEYLAICDECYITEMEMLLNEKGEFTIETEGKTFQLTKDMINVKRFQKTLYVEEVVPNVIEPSFGLGRIMYTVFEHTFHVREGDEQRTFFSFPAVVAPFKCSVLPLSQNQEFMPFVKELSEALTRHGVSHKVDDSSGSIGRRYARTDEIGVAFGVTIDFDTVNKTPHTATLRDRDSMRQIRAEISELPSIVQDLANGNITWADVEARYPLFEGQETGKKETIEE
In the case of B1, the Kd is 2.12 nM in test [1], 3.21 nM in test [2], 22.4 nM in test [3] and 7.88 nM in test [4].

B2: ΔF84-L93 GlyRS (F84-L93 replaced by GGG) (enzyme)
chain: MDGAGAEEVLAPLRLAVRQQGDLVRKLKEDKAPQVDVDKAVAELKARKRVLEAKELALQPKDDIVDRAKMEDTLKRRFFYDQAGGGYDFGPVGCALKNNIIQTWRQHFIQEEQILEIDCTMLTPEPVLKTSGHVDKFADFMVKDVKNGECFRADHLLKAHLQKLMSDKKCSVEKKSEMESVLAQLDNYGQQELADLFVNYNVKSPITGNDLSPPVSFNLMFKTFIGPGGNMPGYLRPETAQGIFLNFKRLLEFNQGKLPFAAAQIGNSFRNEISPRSGLIRVREFTMAEIEHFVDPSEKDHPKFQNVADLHLYLYSAKAQVSGQSARKMRLGDAVEQGVINNTVLGYFIGRIYLYLTKVGISPDKLRFRQHMENEMAHYACDCWDAESKTSYGWIEIVGCADRSCYDLSCHARATKVPLVAEKPLKEPKTVNVVQFEPSKGAIGKAYKKDAKLVMEYLAICDECYITEMEMLLNEKGEFTIETEGKTFQLTKDMINVKRFQKTLYVEEVVPNVIEPSFGLGRIMYTVFEHTFHVREGDEQRTFFSFPAVVAPFKCSVLPLSQNQEFMPFVKELSEALTRHGVSHKVDDSSGSIGRRYARTDEIGVAFGVTIDFDTVNKTPHTATLRDRDSMRQIRAEISELPSIVQDLANGNITWADVEARYPLFEGQETGKKETIEE
For the molecule B2, in test [5], the Kd came to 27 nM and the fold decrease of binding against wild type GlyRS amounted to 9 fold.

B3: ΔInsertion 1 GlyRS (F147-F224 replaced by GSGSGG) (enzyme)
chain: MDGAGAEEVLAPLRLAVRQQGDLVRKLKEDKAPQVDVDKAVAELKARKRVLEAKELALQPKDDIVDRAKMEDTLKRRFFYDQAFAIYGGVSGLYDFGPVGCALKNNIIQTWRQHFIQEEQILEIDCTMLTPEPVLKTSGHVDKFADGSGSGGNLMFKTFIGPGGNMPGYLRPETAQGIFLNFKRLLEFNQGKLPFAAAQIGNSFRNEISPRSGLIRVREFTMAEIEHFVDPSEKDHPKFQNVADLHLYLYSAKAQVSGQSARKMRLGDAVEQGVINNTVLGYFIGRIYLYLTKVGISPDKLRFRQHMENEMAHYACDCWDAESKTSYGWIEIVGCADRSCYDLSCHARATKVPLVAEKPLKEPKTVNVVQFEPSKGAIGKAYKKDAKLVMEYLAICDECYITEMEMLLNEKGEFTIETEGKTFQLTKDMINVKRFQKTLYVEEVVPNVIEPSFGLGRIMYTVFEHTFHVREGDEQRTFFSFPAVVAPFKCSVLPLSQNQEFMPFVKELSEALTRHGVSHKVDDSSGSIGRRYARTDEIGVAFGVTIDFDTVNKTPHTATLRDRDSMRQIRAEISELPSIVQDLANGNITWADVEARYPLFEGQETGKKETIEE
B3 returned a dissociation constant Kd in test [5] of 4.32 nM.

In general, Kd refers to a measure of binding affinity in units of concentration.
